Measurements published in patent publication US6991790 (Genentech, dated 2006).

Assays:
[1] = molecular target: T1, recombinant preparation of soluble MAC-1 (UniProt P11215 17-1104; P05107 23-700); assay: MAC-1 capture ELISA titer over UV concentration; freeze/thaw study, F1, held at 5° C. (control)
[2] = molecular target: T1, recombinant preparation of soluble MAC-1; assay: MAC-1 capture ELISA titer over UV concentration; freeze/thaw study, F2, held at 5° C. (control)
[3] = molecular target: T1, recombinant preparation of soluble MAC-1; assay: MAC-1 capture ELISA titer over UV concentration; freeze/thaw study, F3, held at 5° C. (control)
[4] = molecular target: T1, recombinant preparation of soluble MAC-1; assay: MAC-1 capture ELISA titer over UV concentration; freeze/thaw study, F4, held at 5° C. (control)
[5] = molecular target: T1, recombinant preparation of soluble MAC-1; assay: MAC-1 capture ELISA titer over UV concentration; freeze/thaw study, F5, held at 5° C. (control)
[6] = molecular target: T1, recombinant preparation of soluble MAC-1; assay: MAC-1 capture ELISA titer over UV concentration; F1 after three freeze/thaw cycles -20° C. to 5° C.
[7] = molecular target: T1, recombinant preparation of soluble MAC-1; assay: MAC-1 capture ELISA titer over UV concentration; F1 after three freeze/thaw cycles -70° C. to 5° C.
[8] = molecular target: T1, recombinant preparation of soluble MAC-1; assay: MAC-1 capture ELISA titer over UV concentration; F2 after three freeze/thaw cycles -20° C. to 5° C.
[9] = molecular target: T1, recombinant preparation of soluble MAC-1; assay: MAC-1 capture ELISA titer over UV concentration; F2 after three freeze/thaw cycles -70° C. to 5° C.
[10] = molecular target: T1, recombinant preparation of soluble MAC-1; assay: MAC-1 capture ELISA titer over UV concentration; F3 after three freeze/thaw cycles -20° C. to 5° C.
[11] = molecular target: T1, recombinant preparation of soluble MAC-1; assay: MAC-1 capture ELISA titer over UV concentration; F3 after three freeze/thaw cycles -70° C. to 5° C.
[12] = molecular target: T1, recombinant preparation of soluble MAC-1; assay: MAC-1 capture ELISA titer over UV concentration; F4 after three freeze/thaw cycles -20° C. to 5° C.
[13] = molecular target: T1, recombinant preparation of soluble MAC-1; assay: MAC-1 capture ELISA titer over UV concentration; F4 after three freeze/thaw cycles -70° C. to 5° C.
[14] = molecular target: T1, recombinant preparation of soluble MAC-1; assay: MAC-1 capture ELISA titer over UV concentration; F5 after three freeze/thaw cycles -20° C. to 5° C.
[15] = molecular target: T1, recombinant preparation of soluble MAC-1; assay: MAC-1 capture ELISA titer over UV concentration; F5 after three freeze/thaw cycles -70° C. to 5° C.

Specific Activity (MAC-1/UV) [1]: 1.05 ratio (MAC-1/UV)
Specific Activity (MAC-1/UV) [2]: 1.14 ratio (MAC-1/UV)
Specific Activity (MAC-1/UV) [3]: 1.1 ratio (MAC-1/UV)
Specific Activity (MAC-1/UV) [4]: 0.98 ratio (MAC-1/UV)
Specific Activity (MAC-1/UV) [5]: 1.14 ratio (MAC-1/UV)
Specific Activity (MAC-1/UV) [6]: 1 ratio (MAC-1/UV)
Specific Activity (MAC-1/UV) [7]: 1.03 ratio (MAC-1/UV)
Specific Activity (MAC-1/UV) [8]: 1.2 ratio (MAC-1/UV)
Specific Activity (MAC-1/UV) [9]: 1.13 ratio (MAC-1/UV)
Specific Activity (MAC-1/UV) [10]: 1.08 ratio (MAC-1/UV)
Specific Activity (MAC-1/UV) [11]: 1.1 ratio (MAC-1/UV)
Specific Activity (MAC-1/UV) [12]: 1.09 ratio (MAC-1/UV)
Specific Activity (MAC-1/UV) [13]: 1.06 ratio (MAC-1/UV)
Specific Activity (MAC-1/UV) [14]: 1.09 ratio (MAC-1/UV)
Specific Activity (MAC-1/UV) [15]: 1.09 ratio (MAC-1/UV)
B1: recombinant humanized anti-CD18 antibody (rhuMAb CD18) (antibody, V domains shown)
VH: EVQLVESGGGLVQPGGSLRLSCATSGYTFTEYTMHWMRQAPGKGLEWVAGINPKNGGTSHNQRFMDRFTISVDKSTSTAYMQMNSLRAEDTAVYYCARWRGLNYGFDVRYFDVWGQGTLVTVSS
VL: DIQMTQSPSSLSASVGDRVTITCRASQDINNYLNWYQQKPGKAPKLLIYYTSTLHSGVPSRFSGSGSGTDYTLTISSLQPEDFATYYCQQGNTLPPTFGQGTKVEIKR
notes: Tested as an F(ab')2 of two light and two heavy chains linked by disulfide bonds, made in E. coli; It was humanized from murine muMAb H52; It says the antibody is directed to the CD18 chain of MAC-1; also called anti-CD18 F(ab')2 antibody; humanized H52 antibody
